According to publication PMC11699195:

Assay: immunoblot, H460, A549, HCC827 cells
Settings: glycan gained; control: mock vector

With PD-L1: RPN1-HA overexpression the expression_or_secretion was “increases”.
